Laboratory results published in IntAct's records for PubMed 25502805.

Key:
vps29_human VPS29 = vps29_human VPS29 (UniProt Q9UBQ0)
hbaz_human HBZ = hbaz_human HBZ (UniProt P02008)

effect of a mutation on the interaction (vps29_human VPS29)	effect of a mutation on the interaction (hbaz_human HBZ)	Substance
with no effect	–	Vacuolar protein sorting-associated protein 35 (Homo sapiens) (from UniProt Q96QK1) R524W
–	disrupting interaction strength	Hemoglobin subunit beta (Homo sapiens), P68871 H118Y
–	disrupting interaction strength	Hemoglobin subunit beta (Homo sapiens), P68871 V127G
–	disrupting interaction strength	Hemoglobin subunit beta (Homo sapiens), P68871 V114E
–	disrupting interaction strength	Hemoglobin subunit beta (Homo sapiens), P68871 E102Q
–	disrupting interaction strength	Hemoglobin subunit beta (Homo sapiens), P68871 L115P
–	disrupting interaction strength	Hemoglobin subunit beta (Homo sapiens), P68871 S10C
with no effect	–	Vacuolar protein sorting-associated protein 35 (Homo sapiens) (from UniProt Q96QK1) D620N
–	with no effect	Hemoglobin subunit beta (Homo sapiens), P68871 N103Y
–	disrupting interaction strength	Hemoglobin subunit beta (Homo sapiens), P68871 P101A
–	disrupting interaction strength	Hemoglobin subunit beta (Homo sapiens), P68871 F123S
–	disrupting interaction strength	Hemoglobin subunit beta (Homo sapiens), P68871 F104L
–	disrupting interaction strength	Hemoglobin subunit beta (Homo sapiens), P68871 D100Y
–	disrupting interaction strength	Hemoglobin subunit beta (Homo sapiens), P68871 E122V
